The values below come from the supplement of paper PMC11780869.

The data set deals with Bacillus subtilis. In words: cleaved RNA product abundance (RNA/gDNA barcode ratio) relative to median wild-type variant (ratio to wild type); higher = more accumulation of the downstream cleavage product. Conditions: experiment (reporter, strain, medium): exp 8a: truncated aprE reporter, strain BJT201 with 2% xylose (RNase J1 expressed); cleavage site: glnRA (positions -5 to +31 mutated). The procedure, abridged:
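The B. subtilis chromosome carried reporter mRNAs, truncated aprE or tetM, containing barcoded RNase Y cleavage-site windows mutagenized using oligos with a 9% error rate. After growth in LB at 37°C from OD600 0.0003 to 0.3, cleaved RNA was gel-selected, reverse transcribed and barcode-sequenced next to genomic DNA barcodes, with UMI collapsing. Each construct's RNA:gDNA barcode ratio was scaled to the median construct with the unmutated site. That scaled ratio is reported as cleaved product abundance.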
Turning to “CGACATGTCCCGCTTCTTTCATTAATCCGTTAGCAACTGTTTTGCAATATACATTTCCCTTTTAAGAGGAGGAAT”, the “cleaved RNA product abundance” value turned out to be 0.589. As for “CGACATGTCCCGCTTCTTTCATTAATCCGTTAGCAACTGTTTTGCAATATACCTTTACCTTTTAAGAGGAGGAAT”, the figure is 0.29; as for “CGACATGTCCCGCTTCTTTCATTAATCCGTTAGCAACTGTTTTGCAATATAGATTTACCTTTTAAGAGGAGGAAT”, 0.599.

Take “CGACATGTCCCGCTTCTTTCATTAATCCGTTAGCAACTGTTTTGCAATATATATTTACCTTTTAAGAGGAGGAAT”: the “cleaved RNA product abundance” value turned out to be 0.379. Consider “CGACATGTCCCGCTTCTTTCATTAATCCGTTAGCAACTGTTTTGCAATATCCATTTACCTTTTAAGAGGAGGAAT”, for which the “cleaved RNA product abundance” value turned out to be 0.156.

For “CGACATGTCCCGCTTCTTTCATTAATCCGTTAGCAACTGTTTTGCCACGTACATTTACCTTTTAAGAGGAGGAAT”, the “cleaved RNA product abundance” value was found to be 0.0527.

As to “CGACATGTCCCGCTTCTTTCATTAATCCGTTAGCAACTGTTTTGCCAGATACATTTACCTTTTAAGAGGAGGAAT”, the “cleaved RNA product abundance” value was 0.286.

In the case of “CGACATGTCCCGCTTCTTTCATTAATCCGTTAGCAACTGTTTTGCCATATACACTTACCTTTTAAGAGGAGGAAT”, the “cleaved RNA product abundance” value amounted to 0.161. As for “CGACATGTCCCGCTTCTTTCATTAATCCGTTAGCAACTGTTTTGCCATATACATATACCTTTTAAGAGGAGGAAT”, the figure is 0.198. As for “CGACATGTCCCGCTTCTTTCATTAATCCGTTAGCAACTGTTTTGCCATATACATTTAACTTTTAAGAGGAGGAAT”, the figure is 0.406; as for “CGACATGTCCCGCTTCTTTCATTAATCCGTTAGCAACTGTTTTGCCATATACATTTACATTTTAAGAGGAGGAAT”, 0.355. The value for “CGACATGTCCCGCTTCTTTCATTAATCCGTTAGCAACTGTTTTGCCATATACATTTACCGTTTAAGAGGAGGAAT” was 0.539; that for “CGACATGTCCCGCTTCTTTCATTAATCCGTTAGCAACTGTTTTGCCATATACATTTACCTTTTAAGAGGAGGAAT” was 0.205.

With “CGACATGTCCCGCTTCTTTCATTAATCCGTTAGCAACTGTTTTGCCATATACATTTACGTTTTAAGAGGAGGAAT”, the “cleaved RNA product abundance” value was found to be 0.6.

With “CGACATGTCCCGCTTCTTTCATTAATCCGTTAGCAACTGTTTTGCCATATACGTTTACCTTTTAAGAGGAGGAAT”, the “cleaved RNA product abundance” value stood at 0.0858.

Take “CGACATGTCCCGCTTCTTTCATTAATCCGTTAGCAACTGTTTTGCGATATACATTAACCTTTTAAGAGGAGGAAT”: the “cleaved RNA product abundance” value is 0.781. The value for “CGACATGTCCCGCTTCTTTCATTAATCCGTTAGCAACTGTTTTGCGATATACATTTACCATTTAAGAGGAGGAAT” was 0.637. For “CGACATGTCCCGCTTCTTTCATTAATCCGTTAGCAACTGTTTTGCGATATACATTTACCTTTTAAGAGGAGGAAT”, the “cleaved RNA product abundance” value was 0.406. The value for “CGACATGTCCCGCTTCTTTCATTAATCCGTTAGCAACTGTTTTGCGATATACATTTACGTTTTAAGAGGAGGAAT” was 0.36; that for “CGACATGTCCCGCTTCTTTCATTAATCCGTTAGCAACTGTTTTGCGATATACATTTACTTTTTAAGAGGAGGAAT” was 0.55. The value for “CGACATGTCCCGCTTCTTTCATTAATCCGTTAGCAACTGTTTTGCGATATACATTTATCTTTTAAGAGGAGGAAT” was 0.552; that for “CGACATGTCCCGCTTCTTTCATTAATCCGTTAGCAACTGTTTTGCTAAAGACATTTACCTTTTAAGAGGAGGAAT” was 0.0969; that for “CGACATGTCCCGCTTCTTTCATTAATCCGTTAGCAACTGTTTTGCTAAATACATTTAACTTTTAAGAGGAGGAAT” was 0.445.

In the case of “CGACATGTCCCGCTTCTTTCATTAATCCGTTAGCAACTGTTTTGCTAAATACATTTACCTTTTAAGAGGAGGAAT”, the “cleaved RNA product abundance” value was found to be 0.524.

Consider “CGACATGTCCCGCTTCTTTCATTAATCCGTTAGCAACTGTTTTGCTAAATACATTTATCTTTTAAGAGGAGGAAT”, for which the “cleaved RNA product abundance” value came out at 0.814.

For “CGACATGTCCCGCTTCTTTCATTAATCCGTTAGCAACTGTTTTGCTAAATACATTTGCCTTTTAAGAGGAGGAAT”, the “cleaved RNA product abundance” value was found to be 0.22.

As to “CGACATGTCCCGCTTCTTTCATTAATCCGTTAGCAACTGTTTTGCTAAATACATTTTCCTTTTAAGAGGAGGAAT”, the “cleaved RNA product abundance” value stood at 0.232. As for “CGACATGTCCCGCTTCTTTCATTAATCCGTTAGCAACTGTTTTGCTAAATACCTTTACCTTTTAAGAGGAGGAAT”, the figure is 0.165; as for “CGACATGTCCCGCTTCTTTCATTAATCCGTTAGCAACTGTTTTGCTAAATAGATTTACCTTTTAAGAGGAGGAAT”, 0.884. The value for “CGACATGTCCCGCTTCTTTCATTAATCCGTTAGCAACTGTTTTGCTAAATTCATTTACCTTTTAAGAGGAGGAAT” was 0.133; that for “CGACATGTCCCGCTTCTTTCATTAATCCGTTAGCAACTGTTTTGCTACATACAATTACCTTTTAAGAGGAGGAAT” was 0.348. The value for “CGACATGTCCCGCTTCTTTCATTAATCCGTTAGCAACTGTTTTGCTACATACACTTACCTTTTAAGAGGAGGAAT” was 0.213.

In the case of “CGACATGTCCCGCTTCTTTCATTAATCCGTTAGCAACTGTTTTGCTACATACATTAACCTTTTAAGAGGAGGAAT”, the “cleaved RNA product abundance” value stood at 0.434. The value for “CGACATGTCCCGCTTCTTTCATTAATCCGTTAGCAACTGTTTTGCTACATACATTTACCTTTTAAGAGGAGGAAT” was 0.368. The value for “CGACATGTCCCGCTTCTTTCATTAATCCGTTAGCAACTGTTTTGCTAGATACATATACCTTTTAAGAGGAGGAAT” was 0.781; that for “CGACATGTCCCGCTTCTTTCATTAATCCGTTAGCAACTGTTTTGCTAGATACATTTACATTTTAAGAGGAGGAAT” was 0.424; that for “CGACATGTCCCGCTTCTTTCATTAATCCGTTAGCAACTGTTTTGCTAGATACATTTACCTTTTAAGAGGAGGAAT” was 0.43.

As to “CGACATGTCCCGCTTCTTTCATTAATCCGTTAGCAACTGTTTTGCTAGATACATTTACTTTTTAAGAGGAGGAAT”, the “cleaved RNA product abundance” value was 0.636. For “CGACATGTCCCGCTTCTTTCATTAATCCGTTAGCAACTGTTTTGCTATAAAAATTTACCTTTTAAGAGGAGGAAT”, the “cleaved RNA product abundance” value stood at 0.405. As for “CGACATGTCCCGCTTCTTTCATTAATCCGTTAGCAACTGTTTTGCTATAAACATTTAACTTTTAAGAGGAGGAAT”, the “cleaved RNA product abundance” value was found to be 0.912. As for “CGACATGTCCCGCTTCTTTCATTAATCCGTTAGCAACTGTTTTGCTATAAACATTTACCTTTTAAGAGGAGGAAT”, the figure is 0.603; as for “CGACATGTCCCGCTTCTTTCATTAATCCGTTAGCAACTGTTTTGCTATAAACATTTACGTTTTAAGAGGAGGAAT”, 1.32.

Regarding “CGACATGTCCCGCTTCTTTCATTAATCCGTTAGCAACTGTTTTGCTATAAACATTTATCTTTTAAGAGGAGGAAT”, the “cleaved RNA product abundance” value amounted to 0.717. As for “CGACATGTCCCGCTTCTTTCATTAATCCGTTAGCAACTGTTTTGCTATAAACCTTTACCTTTTAAGAGGAGGAAT”, the figure is 0.163. The value for “CGACATGTCCCGCTTCTTTCATTAATCCGTTAGCAACTGTTTTGCTATAAACTTTTACCTTTTAAGAGGAGGAAT” was 0.318; that for “CGACATGTCCCGCTTCTTTCATTAATCCGTTAGCAACTGTTTTGCTATAAATATTTACCTTTTAAGAGGAGGAAT” was 1.49; that for “CGACATGTCCCGCTTCTTTCATTAATCCGTTAGCAACTGTTTTGCTATACACATTTACATTTTAAGAGGAGGAAT” was 0.372. On to “CGACATGTCCCGCTTCTTTCATTAATCCGTTAGCAACTGTTTTGCTATACACATTTACCTTTTAAGAGGAGGAAT”, for which the “cleaved RNA product abundance” value came out at 0.459. As for “CGACATGTCCCGCTTCTTTCATTAATCCGTTAGCAACTGTTTTGCTATACACATTTACTTTTTAAGAGGAGGAAT”, the figure is 0.146; as for “CGACATGTCCCGCTTCTTTCATTAATCCGTTAGCAACTGTTTTGCTATAGACATTCACCTTTTAAGAGGAGGAAT”, 0.435; as for “CGACATGTCCCGCTTCTTTCATTAATCCGTTAGCAACTGTTTTGCTATAGACATTTAACTTTTAAGAGGAGGAAT”, 1.15. The value for “CGACATGTCCCGCTTCTTTCATTAATCCGTTAGCAACTGTTTTGCTATAGACATTTACCTTTTAAGAGGAGGAAT” was 0.624; that for “CGACATGTCCCGCTTCTTTCATTAATCCGTTAGCAACTGTTTTGCTATATAAAATTACCTTTTAAGAGGAGGAAT” was 0.606. The value for “CGACATGTCCCGCTTCTTTCATTAATCCGTTAGCAACTGTTTTGCTATATAAATATACCTTTTAAGAGGAGGAAT” was 1.3; that for “CGACATGTCCCGCTTCTTTCATTAATCCGTTAGCAACTGTTTTGCTATATAAATCTACCTTTTAAGAGGAGGAAT” was 1.49; that for “CGACATGTCCCGCTTCTTTCATTAATCCGTTAGCAACTGTTTTGCTATATAAATGTACCTTTTAAGAGGAGGAAT” was 1.78. In the case of “CGACATGTCCCGCTTCTTTCATTAATCCGTTAGCAACTGTTTTGCTATATAAATTAACCTTTTAAGAGGAGGAAT”, the “cleaved RNA product abundance” value stood at 1.01.

Consider “CGACATGTCCCGCTTCTTTCATTAATCCGTTAGCAACTGTTTTGCTATATAAATTTACATTTTAAGAGGAGGAAT”, for which the “cleaved RNA product abundance” value is 1.83. The value for “CGACATGTCCCGCTTCTTTCATTAATCCGTTAGCAACTGTTTTGCTATATAAATTTACCTTTTAAGAGGAGGAAT” was 0.938; that for “CGACATGTCCCGCTTCTTTCATTAATCCGTTAGCAACTGTTTTGCTATATAAATTTACGTTTTAAGAGGAGGAAT” was 1.02.

On to “CGACATGTCCCGCTTCTTTCATTAATCCGTTAGCAACTGTTTTGCTATATAAATTTATCTTTTAAGAGGAGGAAT”, for which the “cleaved RNA product abundance” value worked out at 2.04.
